# Measured values taken from patent publication US20260007767A1 (ACADEMIA SINICA, published 2026).
# T1: endogenous FLT3 on the plasma membranes of THP-1 or NOMO-1 cells (UniProt P36888 27-993, limits assumed)
# T1 construct: whole, on cells
# T1 sequence (looked up): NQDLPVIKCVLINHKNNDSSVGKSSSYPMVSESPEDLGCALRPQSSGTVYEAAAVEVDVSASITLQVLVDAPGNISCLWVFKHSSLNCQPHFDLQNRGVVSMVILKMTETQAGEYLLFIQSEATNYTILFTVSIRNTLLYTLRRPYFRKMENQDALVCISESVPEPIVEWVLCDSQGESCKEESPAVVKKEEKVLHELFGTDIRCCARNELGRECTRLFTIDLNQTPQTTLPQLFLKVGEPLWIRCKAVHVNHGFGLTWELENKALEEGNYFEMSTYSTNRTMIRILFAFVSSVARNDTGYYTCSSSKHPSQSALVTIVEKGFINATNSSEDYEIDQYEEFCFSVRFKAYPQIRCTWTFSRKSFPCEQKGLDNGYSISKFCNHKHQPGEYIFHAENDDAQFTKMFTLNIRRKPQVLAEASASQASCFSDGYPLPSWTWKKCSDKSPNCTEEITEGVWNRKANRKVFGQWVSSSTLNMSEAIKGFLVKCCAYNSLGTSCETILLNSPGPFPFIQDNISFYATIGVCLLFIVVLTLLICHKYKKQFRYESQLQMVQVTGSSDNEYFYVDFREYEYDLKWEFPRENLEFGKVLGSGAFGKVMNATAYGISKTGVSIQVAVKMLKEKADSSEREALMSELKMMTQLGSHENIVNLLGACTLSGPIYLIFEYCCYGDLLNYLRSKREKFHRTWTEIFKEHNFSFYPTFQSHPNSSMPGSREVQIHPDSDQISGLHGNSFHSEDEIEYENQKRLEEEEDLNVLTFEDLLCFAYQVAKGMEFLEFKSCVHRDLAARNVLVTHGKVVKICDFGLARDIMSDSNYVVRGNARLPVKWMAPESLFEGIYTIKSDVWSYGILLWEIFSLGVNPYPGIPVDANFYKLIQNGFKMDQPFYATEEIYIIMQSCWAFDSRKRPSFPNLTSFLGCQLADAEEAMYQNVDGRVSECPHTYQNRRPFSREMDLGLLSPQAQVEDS
# B1: SCUBE1 on the cell surface of leukemia cells (THP-1, NOMO-1 and other lines) (other, human, UniProt Q8IWY4 24-988, looked up)
# chain: GGSGLPGSVDVDECSEGTDDCHIDAICQNTPKSYKCLCKPGYKGEGKQCEDIDECENDYYNGGCVHECINIPGNYRCTCFDGFMLAHDGHNCLDVDECQDNNGGCQQICVNAMGSYECQCHSGFFLSDNQHTCIHRSNEGMNCMNKDHGCAHICRETPKGGVACDCRPGFDLAQNQKDCTLTCNYGNGGCQHSCEDTDTGPTCGCHQKYALHSDGRTCIETCAVNNGGCDRTCKDTATGVRCSCPVGFTLQPDGKTCKDINECLVNNGGCDHFCRNTVGSFECGCRKGYKLLTDERTCQDIDECSFERTCDHICINSPGSFQCLCHRGYILYGTTHCGDVDECSMSNGSCDQGCVNTKGSYECVCPPGRRLHWNGKDCVETGKCLSRAKTSPRAQLSCSKAGGVESCFLSCPAHTLFVPDSENSYVLSCGVPGPQGKALQKRNGTSSGLGPSCSDAPTTPIKQKARFKIRDAKCHLRPHSQARAKETARQPLLDHCHVTFVTLKCDSSKKRRRGRKSPSKEVSHITAEFEIETKMEEASDTCEADCLRKRAEQSLQAAIKTLRKSIGRQQFYVQVSGTEYEVAQRPAKALEGQGACGAGQVLQDSKCVACGPGTHFGGELGQCVSCMPGTYQDMEGQLSCTPCPSSDGLGLPGARNVSECGGQCSPGFFSADGFKPCQACPVGTYQPEPGRTGCFPCGGGLLTKHEGTTSFQDCEAKVHCSPGHHYNTTTHRCIRCPVGTYQPEFGQNHCITCPGNTSTDFDGSTNVTHCKNQHCGGELGDYTGYIESPNYPGDYPANAECVWHIAPPPKRRILIVVPEIFLPIEDECGDVLVMRKSASPTSITTYETCQTYERPIAFTSRSRKLWIQFKSNEGNSGKGFQVPYVTYDEDYQQLIEDIVRDGRLYASENHQEILKDKKLIKALFDVLAHPQNYFKYTAQESKEMFPRSFIKLLRSKVSRFLRPYK
# notes: whole, on cells; Endogenous protein; in western blots it was in cell lysate; also called surface SCUBE1; membrane SCUBE1
# Biological target: T1, endogenous FLT3 on the plasma membranes …
# Assay: interaction and colocalization in THP-1 or NOMO-1 cells (method not detailed)
binder,measurement,value
B1,binding result,binds
